Substitutions are numbered along the chain they refer to.
T1: DENV-IV抗原(一种NS1蛋白，购自菲鹏) (dengue virus serotype 4 (DENV-IV), UniProt P09866 775-1126, limits assumed)
T1 construct: also called DENV-IV antigen
T1 sequence (looked up): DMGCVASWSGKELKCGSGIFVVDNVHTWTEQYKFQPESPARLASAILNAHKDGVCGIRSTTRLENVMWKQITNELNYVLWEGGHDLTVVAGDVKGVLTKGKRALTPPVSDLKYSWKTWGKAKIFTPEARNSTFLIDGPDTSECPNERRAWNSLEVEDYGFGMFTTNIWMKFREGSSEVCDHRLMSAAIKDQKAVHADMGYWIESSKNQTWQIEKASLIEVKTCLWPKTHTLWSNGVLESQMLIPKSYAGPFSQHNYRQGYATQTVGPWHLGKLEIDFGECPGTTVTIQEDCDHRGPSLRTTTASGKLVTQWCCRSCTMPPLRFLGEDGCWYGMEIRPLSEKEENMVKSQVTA

B1: DF-5M32RMb1 (antibody, mouse IgG1, kappa, V domains shown)
VH: QVQLQQSGAELARPGASVKLSCKASGYTFINYWMQWVKQRPGQGLEWIGAIYPGDGDTRYTQNFKGKAALTADKSSSTAYMQLSSLASEDSAVYYCATGTEGILDYWGQGTSVTVSS
VL: DAVMTQTPLTLSVLIGQPASLSCKSSQSLLESDGKTYLNWLFQRPGQSPKRLIYLVSKLESGVPDRFTGSGSGTEFTLKISRVEAEDLGVYYCWQATHHPLTFGTGTNLELKR
notes: also called Anti-DF 5M32; Anti-DF 5M32单克隆抗体 (recombinant)
B2: DF-5M32RMb2 (antibody, mouse IgG1, kappa, V domains shown)
VH: B1 VH with I30L, I103L
VL: B1 VL
notes: also called DF-8F13RMb2
B3: DF-5M32RMb3 (antibody, mouse IgG1, kappa, V domains shown)
VH: B1 VH with I30L
VL: B1 VL
notes: also called DF-8F13RMb3
B4: DF-5M32RMb4 (antibody, mouse IgG1, kappa, V domains shown)
VH: B1 VH with I103L
VL: B1 VL
notes: also called DF-8F13RMb4

target: T2, DENV抗原 (DENV阳性血清) (dengue virus (DENV), serotype ); experiment: sandwich ELISA, antibody at 12.5 ng/ml captured on goat anti-mouse IgG, DENV-positive serum, HRP-labelled DENV mAb
T2 construct: also called DENV antigen in DENV-positive serum

In order of rising “OD (450nm, 参考630nm)” value:
1. B3  1.97 OD
2. B4  2.01 OD
3. B2  2.04 OD
4. B1  2.1 OD

target: T2, DENV抗原 (DENV阳性血清); experiment: sandwich ELISA, antibody at 3.125 ng/ml captured on goat anti-mouse IgG, DENV-positive serum, HRP-labelled DENV mAb

In order of falling “OD (450nm, 参考630nm)” value:
1. B1  0.963 OD
2. B2  0.96 OD
3. B3  0.952 OD
4. B4  0.923 OD

target: T2, DENV抗原 (DENV阳性血清); experiment: sandwich ELISA, antibody at 1.5625 ng/ml captured on goat anti-mouse IgG, DENV-positive serum, HRP-labelled DENV mAb

In order of rising “OD (450nm, 参考630nm)” value:
1. B2  0.603 OD
2. B3  0.622 OD
3. B4  0.631 OD
4. B1  0.654 OD

target: T2, DENV抗原 (DENV阳性血清); experiment: sandwich ELISA, antibody at 0.78125 ng/ml captured on goat anti-mouse IgG, DENV-positive serum, HRP-labelled DENV mAb

In order of rising “OD (450nm, 参考630nm)” value:
1. B2  0.471 OD
2. B3  0.479 OD
3. B4  0.482 OD
4. B1  0.489 OD

target: T2, DENV抗原 (DENV阳性血清); experiment: sandwich ELISA, antibody at 0 ng/ml (blank without antibody), goat anti-mouse IgG, DENV-positive serum, HRP-labelled DENV mAb

In order of falling “OD (450nm, 参考630nm)” value:
1. B3  0.043 OD
2. B1  0.039 OD
3. B4  0.032 OD
4. B2  0.031 OD

target: T1, DENV-IV抗原(一种NS1蛋白，购自菲鹏); experiment: not given

In order of rising Kd:
1. B4  52.9 nM
2. B2  57.8 nM
3. B1  59.6 nM
4. B3  63.6 nM

In order of falling koff:
1. B3  0.00186 s⁻¹
2. B2  0.00184 s⁻¹
3. B4  0.00176 s⁻¹
4. B1  0.00128 s⁻¹

In order of rising kon:
1. B1  21400 M⁻¹ s⁻¹
2. B3  29300 M⁻¹ s⁻¹
3. B2  31900 M⁻¹ s⁻¹
4. B4  33200 M⁻¹ s⁻¹

target: T2, DENV抗原 (DENV阳性血清); experiment: sandwich ELISA, antibody at 6.25 ng/ml captured on goat anti-mouse IgG, DENV-positive serum, HRP-labelled DENV mAb

In order of falling “OD (450nm, 参考630nm)” value:
1. B1  1.52 OD
2. B3  1.5 OD
3. B4  1.49 OD
4. B2  1.47 OD

From patent CN116082499A (DONGGUAN PENGZHI BIOTECHNOLOGY CO LTD, dated 2023)
